Consider 1 substance from article PMC8787476.

This test addresses PERV TM_(493–587) (tag intact) (porcine endogenous retrovirus A (PERV-A)). Nature of the test: SEC; Superdex 75 10/300 GL in 10 mM Tris-HCl, pH 7.5, 150 mM NaCl; calibrated with protein standards (Kav curve); apparent MW ~43 kDa against theoretical trimeric MW 39.9 kDa. (Size exclusion chromatography separates by hydrodynamic size, large species first.)

Turning to “PERV TM_(493–587) (tag intact) (domain or fragment)”, the stoichiometry N (in general, the number of molecules, sites or subunits per partner or assembly) turned out to be 3.
